The target of the assay is LFA1 receptor on T cells (human) (UniProt P20701). In words: cell-based or functional assay.
Sequence of UniProt P20701 (P20701 26-1170, chain 1 of 2): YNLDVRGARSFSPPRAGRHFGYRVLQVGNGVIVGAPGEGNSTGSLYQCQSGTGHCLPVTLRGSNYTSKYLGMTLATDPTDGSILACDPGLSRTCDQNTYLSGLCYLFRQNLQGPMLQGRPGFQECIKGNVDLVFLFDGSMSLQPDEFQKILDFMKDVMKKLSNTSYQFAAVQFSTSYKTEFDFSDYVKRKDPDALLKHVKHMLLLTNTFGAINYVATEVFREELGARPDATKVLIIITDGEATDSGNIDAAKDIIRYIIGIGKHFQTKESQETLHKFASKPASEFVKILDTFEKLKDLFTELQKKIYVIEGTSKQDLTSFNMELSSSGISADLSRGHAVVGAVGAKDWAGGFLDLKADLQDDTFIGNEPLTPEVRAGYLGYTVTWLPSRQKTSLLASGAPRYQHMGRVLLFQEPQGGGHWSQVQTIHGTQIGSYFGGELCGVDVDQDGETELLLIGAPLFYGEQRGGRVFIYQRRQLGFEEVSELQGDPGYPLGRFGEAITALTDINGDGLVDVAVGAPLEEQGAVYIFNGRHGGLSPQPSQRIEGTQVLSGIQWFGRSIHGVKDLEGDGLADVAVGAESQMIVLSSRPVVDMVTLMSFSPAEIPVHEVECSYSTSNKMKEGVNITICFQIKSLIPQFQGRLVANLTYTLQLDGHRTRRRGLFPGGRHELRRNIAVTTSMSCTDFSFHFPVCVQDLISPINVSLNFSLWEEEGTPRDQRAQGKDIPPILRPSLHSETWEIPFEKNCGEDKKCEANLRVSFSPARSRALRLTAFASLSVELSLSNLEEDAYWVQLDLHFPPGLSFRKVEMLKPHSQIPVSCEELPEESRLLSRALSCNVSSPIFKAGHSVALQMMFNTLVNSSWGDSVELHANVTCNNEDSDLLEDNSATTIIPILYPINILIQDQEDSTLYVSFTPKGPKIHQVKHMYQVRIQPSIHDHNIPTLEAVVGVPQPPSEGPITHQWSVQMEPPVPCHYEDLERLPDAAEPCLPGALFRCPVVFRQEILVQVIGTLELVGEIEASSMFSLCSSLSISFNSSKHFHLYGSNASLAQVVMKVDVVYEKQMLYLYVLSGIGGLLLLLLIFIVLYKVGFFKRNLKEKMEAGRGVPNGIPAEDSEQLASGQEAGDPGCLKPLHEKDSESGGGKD
Sequence of UniProt P20701 (P05107 23-769, chain 2 of 2, further chain): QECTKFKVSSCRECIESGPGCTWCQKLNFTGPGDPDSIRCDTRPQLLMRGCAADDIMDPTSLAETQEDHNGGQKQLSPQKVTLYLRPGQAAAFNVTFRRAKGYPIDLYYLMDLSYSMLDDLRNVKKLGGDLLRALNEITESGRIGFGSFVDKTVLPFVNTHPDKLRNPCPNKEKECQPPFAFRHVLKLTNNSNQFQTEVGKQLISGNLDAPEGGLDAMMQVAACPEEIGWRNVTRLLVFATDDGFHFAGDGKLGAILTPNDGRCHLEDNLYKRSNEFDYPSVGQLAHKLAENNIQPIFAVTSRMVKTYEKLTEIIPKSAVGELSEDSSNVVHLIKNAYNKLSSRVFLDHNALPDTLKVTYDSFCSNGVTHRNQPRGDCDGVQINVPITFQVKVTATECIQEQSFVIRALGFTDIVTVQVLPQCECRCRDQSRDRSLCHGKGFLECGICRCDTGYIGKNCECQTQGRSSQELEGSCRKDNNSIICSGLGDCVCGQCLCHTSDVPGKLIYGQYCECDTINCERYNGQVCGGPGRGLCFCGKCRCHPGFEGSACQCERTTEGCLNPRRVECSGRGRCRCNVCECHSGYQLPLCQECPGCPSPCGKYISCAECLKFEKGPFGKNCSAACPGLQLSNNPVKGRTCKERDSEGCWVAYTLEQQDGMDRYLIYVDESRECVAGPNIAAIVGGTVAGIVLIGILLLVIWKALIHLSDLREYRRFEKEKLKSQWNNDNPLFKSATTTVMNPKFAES

As to anti-LFA1 (TS1/18) monoclonal antibody, the IFN-γ secretion (ELISA) by CD4+ T cells stimulated with IL12, IL18 and TL1A after pretreatment with LFA1 blocking antibody, compared to IgG control antibody was determined as 43 % reduction.

These data come from patent US12618111.
